To fix the notation:
B1: GalNAc-labeled LDLR conjugate (LDLR193 (193-720)(N515Q)(N657Q)_SrtA_CHis) (receptor)
chain: not shown
modifications: C-terminal sortase A ligation to GGG-triGalNAc at the LPETGG motif
notes: also called GalNAc trimer-anti-LDLR protein conjugate
B3: recombinant extracellular domain of human ASGPR1 with N-terminal biotinylated Avitag (receptor, UniProt P07306 62-291, looked up)
chain: QNSQLQEELRGLRETFSNFTASTEAQVKGLSTQGGNVGRKMKSLESQLEKQQKDLSEDHSSLLLHVKQFVSDLRSLSCQMAALQGNGSERTCCPVNWVEHERSCYWFSRSGKAWADADNYCRLEDAHLVVVTSWEEQKFVQHHIGPVNTWMGLHDQNGPWKWVDGTDYETGFKNWRPEQPDDWYGHGLGGGEDCAHFTDDGRWNDDVCQRPYRWVCETELDKASQEPPLL
modifications: biotin on the N-terminal Avitag
notes: extracellular domain; also called hASBPR1; AGSPR1; not shown: N-terminal Avitag

Assay [1] concerns the target T1, purified recombinant full length human PCSK9 with C-terminal biotinylated Avitag (human, UniProt Q8NBP7 31-692, biotin on the C-terminal Avi-tag).
T1 construct: Signal peptide removal and autocatalytic prodomain cleavage are not described for the construct; also called hPCSK9; full length hPCSK9; not shown: Avi-tag
The assay can be described thus: SPR, 1:1 binding fit, stepwise injections over avi-PCSK9. Background: In SPR one partner is held on a chip, and binding of the other changes the refractive index at the surface.

In assay [2] the target is T1, purified recombinant full length human …. The assay can be described thus: SPR, independently immobilized PCSK9.
Assay [3] deals with T2, His-ASGPR1(62-291) (UniProt P07306 62-291).
T2 construct: range 62-291; also called ASGPR1 (analyte of the sandwich SPR assay); not shown: His tag
T2 sequence (looked up): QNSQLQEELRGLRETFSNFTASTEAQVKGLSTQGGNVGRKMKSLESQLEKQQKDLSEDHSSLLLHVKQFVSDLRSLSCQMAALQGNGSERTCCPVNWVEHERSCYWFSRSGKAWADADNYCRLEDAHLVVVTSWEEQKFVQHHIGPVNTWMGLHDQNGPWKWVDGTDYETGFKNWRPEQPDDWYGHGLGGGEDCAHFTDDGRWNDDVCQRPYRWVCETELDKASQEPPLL
Put plainly: SPR, ternary format; panel title: hASGPR1 Binding Immobilized Bispecific Ab Bound to hPCSK9.

Assay [4] addresses B3. The assay can be described thus: SPR, independently immobilized ASGPR. The method, then: (§1) ASGPR SPR experiments were performed on either Biacore T200 or Biacore 8K. The assay was optimized for Biacore SA chip in running buffer consisting of 20 mM HEPES, 300 mM NaCl, 2 mM CaCl₂), 0.01% tween-20, 2% DMSO, pH 7.4. Recombinant extracellular domain of human ASGPR1 with N-terminal biotinylated Avitag was diluted to 20 μg/mL in running buffer, and immobilized onto SA chip after it was preconditioned with at least four 60-second injections at 30 μL/min of 1 M NaCl/40 mM NaOH solution. Protein immobilization level varied from 500 RU to 3500 RU dependent on analytes' molecular weight, for targeted Rmax of 30 RUs. Direct binding of analytes to ASGR1 was observed when a dose response titration of analytes in 2% DMSO was flown over the immobilized protein. Data analysis was done on either Biacore T200 Evaluation Software or Biacore Insight Evaluation Software.

Assay [5] concerns the target B3. Put plainly: SPR, stepwise (single-cycle) injections of the bispecific Ab over immobilised hASGPR1. The method, then:
as §1

Assay [6] has as its target T3, triGalNAc-PCSK9 conjugate 4 (GalNAc-labeled PCSK9) (human, UniProt Q8NBP7 31-692, triGalNAc with a short PEG linker on a single solvent exposed lysine (position not given)).
T3 construct: It is not clear whether the PCSK9 was biotinylated before conjugation; also called triGalNAc-hPCSK9 4; GalNAc trimer-PCSK9 protein conjugate; not shown: Avi-tag
Put plainly: SPR, 1:1 binding fit, stepwise injections over ASGPR1; table under FIG. 16B. The method, then:
as §1

Assay [7] has as its target T3, triGalNAc-PCSK9 conjugate 4 …. The assay is described as above. The method, then:
as §1
The source holds these as a separate data set.

Assay [8] addresses B1. The assay can be described thus: SPR, 1:1 fit, stepwise injections over avi_deglycosylated_ASGPR1.

Read-outs that look alike come from different tables or passages of the source.

One may read the Kd as the free concentration of one partner at which half of the binding sites on the other are occupied at equilibrium, for simple one-to-one binding. Regarding B1, in assay [1], the Kd amounted to 156 nM.

B2: anti-ASGPR-PCSK9 bispecific antibody (ASGPR_4F3_scFv-PCSK9_Fab_DANAPA_hIgG1_KiH) (bispecific antibody)
light: not shown
chain: not shown
heavy: QVQLVQSGAEVKKPGASVKVSCKASGYTFTSYYMHWVRQAPGQGLEWMGEISPFGGRTNYNEKFKSRVTMTRDTSTSTVYMELSSLRSEDTAVYYCARERPLYASDLWGQGTTVTVSSASTKGPSVFPLAPSSKSTSGGTAALGCLVKDYFPEPVTVSWNSGALTSGVHTFPAVLQSSGLYSLSSVVTVPSSSLGTQTYICNVNHKPSNTKVDKRVEPKSCDKTHTCPPCPAPELLGGPSVFLFPPKPKDTLMISRTPEVTCVVVAVSHEDPEVKFNWYVDGVEVHNAKTKPREEQYASTYRVVSVLTVLHQDWLNGKEYKCKVSNKALAAPIEKTISKAKGQPREPQVCTLPPSREEMTKNQVSLSCAVKGFYPSDIAVEWESNGQPENNYKTTPPVLDSDGSFFLVSKLTVDKSRWQQGNVFSCSVMHEALHNHYTQKSLSLSPGK
notes: also called ASGPR-PCSK9 bispecific antibody 5; bispecific ASGPR-PCSK9 Ab 5
For orientation: koff means the first-order rate constant of dissociation. As usually defined, the kon is the rate constant with which the complex forms. As for B2, the Kd in assay [2] came to 0.2 nM; in assay [3], 3.27 nM; in assay [4], 3 nM; in assay [5] it was 2.73 nM. Moreover, the figures for the koff in assay [3] and in assay [5] were 5.93e-05 s⁻¹ and 0.000527 s⁻¹, respectively. Moreover, the results for the association rate constant (kon) in assay [3] and in assay [5] were 18200 M⁻¹ s⁻¹ and 193000 M⁻¹ s⁻¹, respectively.

For the molecule B3, the Kd in assay [6] was 0.299 nM; in assay [7], 0.175 nM; in assay [8] it was 1.34 nM.

Values taken from patent US20240309084A1 (Novartis, published 2024).
